Measured values: patent publication US20180273587A1 (AILERON THERAPEUTICS, published 2018)
Positions of bridges follow the written chain, without caps; N, C: chain ends. Non-standard residues stand in square brackets, D forms with d. R8 = C=CCCCCCC[C@@](C)(N)C(=O)O; S5 = C=CCCC[C@](C)(N)C(=O)O; Aib = CC(C)(N)C(=O)O

B1: Cross-linked peptide #15 (peptide)
peptide: Ac-IWIAQALR[R8]IGDEFN[S5]YYARR-NH2
modifications: staple 9-16
SMILES: CC[C@H](C)[C@H](NC(C)=O)C(=O)N[C@@H](Cc1c[nH]c2ccccc12)C(=O)N[C@H](C(=O)N[C@@H](C)C(=O)N[C@@H](CCC(N)=O)C(=O)N[C@@H](C)C(=O)N[C@@H](CC(C)C)C(=O)N[C@@H](CCCNC(=N)N)C(=O)N[C@]1(C)CCCCCCC=CCCC[C@@](C)(C(=O)N[C@@H](Cc2ccc(O)cc2)C(=O)N[C@@H](Cc2ccc(O)cc2)C(=O)N[C@@H](C)C(=O)N[C@@H](CCCNC(=N)N)C(=O)N[C@@H](CCCNC(=N)N)C(N)=O)NC(=O)[C@H](CC(N)=O)NC(=O)[C@H](Cc2ccccc2)NC(=O)[C@H](CCC(=O)O)NC(=O)[C@H](CC(=O)O)NC(=O)CNC(=O)[C@H]([C@@H](C)CC)NC1=O)[C@@H](C)CC
B2: Cross-linked peptide #14 (peptide)
peptide: Ac-RWIAQALR[S5]IGD[S5]LN[Aib]FYAHH-NH2
modifications: staple 9-13
SMILES: CC[C@H](C)[C@H](NC(=O)[C@H](Cc1c[nH]c2ccccc12)NC(=O)[C@H](CCCNC(=N)N)NC(C)=O)C(=O)N[C@@H](C)C(=O)N[C@@H](CCC(N)=O)C(=O)N[C@@H](C)C(=O)N[C@@H](CC(C)C)C(=O)N[C@@H](CCCNC(=N)N)C(=O)N[C@@]1(C)CCCC=CCCC[C@@](C)(C(=O)N[C@@H](CC(C)C)C(=O)N[C@@H](CC(N)=O)C(=O)NC(C)(C)C(=O)N[C@@H](Cc2ccccc2)C(=O)N[C@@H](Cc2ccc(O)cc2)C(=O)N[C@@H](C)C(=O)N[C@@H](Cc2c[nH]cn2)C(=O)N[C@@H](Cc2c[nH]cn2)C(N)=O)NC(=O)[C@H](CC(=O)O)NC(=O)CNC(=O)[C@H]([C@@H](C)CC)NC1=O
B3: Cross-linked peptide #5 (peptide)
peptide: IWIAQALXAIGDAFNAYYA
modifications: N-terminal Ac; Cit at residue 8 (column 153); $r8 at residue 9 (column 154) and $ at residue 16 (column 161), crosslinked; C-terminal NH2
B4: Cross-linked peptide #7 (peptide)
peptide: Ac-IWIAQALR[R8]IGDAAN[S5]YYA-NH2
modifications: staple 9-16
SMILES: CC[C@H](C)[C@H](NC(C)=O)C(=O)N[C@@H](Cc1c[nH]c2ccccc12)C(=O)N[C@H](C(=O)N[C@@H](C)C(=O)N[C@@H](CCC(N)=O)C(=O)N[C@@H](C)C(=O)N[C@@H](CC(C)C)C(=O)N[C@@H](CCCNC(=N)N)C(=O)N[C@]1(C)CCCCCCC=CCCC[C@@](C)(C(=O)N[C@@H](Cc2ccc(O)cc2)C(=O)N[C@@H](Cc2ccc(O)cc2)C(=O)N[C@@H](C)C(N)=O)NC(=O)[C@H](CC(N)=O)NC(=O)[C@H](C)NC(=O)[C@H](C)NC(=O)[C@H](CC(=O)O)NC(=O)CNC(=O)[C@H]([C@@H](C)CC)NC1=O)[C@@H](C)CC
B5: Cross-linked peptide #11 (peptide)
peptide: Ac-IWIAQALA[R8]IGDAFN[S5]YYA-NH2
modifications: staple 9-16
SMILES: CC[C@H](C)[C@H](NC(C)=O)C(=O)N[C@@H](Cc1c[nH]c2ccccc12)C(=O)N[C@H](C(=O)N[C@@H](C)C(=O)N[C@@H](CCC(N)=O)C(=O)N[C@@H](C)C(=O)N[C@@H](CC(C)C)C(=O)N[C@@H](C)C(=O)N[C@]1(C)CCCCCCC=CCCC[C@@](C)(C(=O)N[C@@H](Cc2ccc(O)cc2)C(=O)N[C@@H](Cc2ccc(O)cc2)C(=O)N[C@@H](C)C(N)=O)NC(=O)[C@H](CC(N)=O)NC(=O)[C@H](Cc2ccccc2)NC(=O)[C@H](C)NC(=O)[C@H](CC(=O)O)NC(=O)CNC(=O)[C@H]([C@@H](C)CC)NC1=O)[C@@H](C)CC
B6: Cross-linked peptide #13 (peptide)
peptide: Ac-IWIAQAAR[R8]IGDAFN[S5]YYA-NH2
modifications: staple 9-16
SMILES: CC[C@H](C)[C@H](NC(C)=O)C(=O)N[C@@H](Cc1c[nH]c2ccccc12)C(=O)N[C@H](C(=O)N[C@@H](C)C(=O)N[C@@H](CCC(N)=O)C(=O)N[C@@H](C)C(=O)N[C@@H](C)C(=O)N[C@@H](CCCNC(=N)N)C(=O)N[C@]1(C)CCCCCCC=CCCC[C@@](C)(C(=O)N[C@@H](Cc2ccc(O)cc2)C(=O)N[C@@H](Cc2ccc(O)cc2)C(=O)N[C@@H](C)C(N)=O)NC(=O)[C@H](CC(N)=O)NC(=O)[C@H](Cc2ccccc2)NC(=O)[C@H](C)NC(=O)[C@H](CC(=O)O)NC(=O)CNC(=O)[C@H]([C@@H](C)CC)NC1=O)[C@@H](C)CC
B7: Cross-linked peptide #8 (peptide)
peptide: Ac-IWIAQALR[R8]IGDQAN[S5]YYA-NH2
modifications: staple 9-16
SMILES: CC[C@H](C)[C@H](NC(C)=O)C(=O)N[C@@H](Cc1c[nH]c2ccccc12)C(=O)N[C@H](C(=O)N[C@@H](C)C(=O)N[C@@H](CCC(N)=O)C(=O)N[C@@H](C)C(=O)N[C@@H](CC(C)C)C(=O)N[C@@H](CCCNC(=N)N)C(=O)N[C@]1(C)CCCCCCC=CCCC[C@@](C)(C(=O)N[C@@H](Cc2ccc(O)cc2)C(=O)N[C@@H](Cc2ccc(O)cc2)C(=O)N[C@@H](C)C(N)=O)NC(=O)[C@H](CC(N)=O)NC(=O)[C@H](C)NC(=O)[C@H](CCC(N)=O)NC(=O)[C@H](CC(=O)O)NC(=O)CNC(=O)[C@H]([C@@H](C)CC)NC1=O)[C@@H](C)CC
B8: Cross-linked peptide #10 (peptide)
peptide: Ac-IWIAQALR[R8]AGDQFN[S5]YYA-NH2
modifications: staple 9-16
SMILES: CC[C@H](C)[C@H](NC(C)=O)C(=O)N[C@@H](Cc1c[nH]c2ccccc12)C(=O)N[C@H](C(=O)N[C@@H](C)C(=O)N[C@@H](CCC(N)=O)C(=O)N[C@@H](C)C(=O)N[C@@H](CC(C)C)C(=O)N[C@@H](CCCNC(=N)N)C(=O)N[C@]1(C)CCCCCCC=CCCC[C@@](C)(C(=O)N[C@@H](Cc2ccc(O)cc2)C(=O)N[C@@H](Cc2ccc(O)cc2)C(=O)N[C@@H](C)C(N)=O)NC(=O)[C@H](CC(N)=O)NC(=O)[C@H](Cc2ccccc2)NC(=O)[C@H](CCC(N)=O)NC(=O)[C@H](CC(=O)O)NC(=O)CNC(=O)[C@H](C)NC1=O)[C@@H](C)CC
B9: Cross-linked peptide #9 (peptide)
peptide: Ac-IWIAQALR[R8]IADQFN[S5]YYA-NH2
modifications: staple 9-16
SMILES: CC[C@H](C)[C@H](NC(C)=O)C(=O)N[C@@H](Cc1c[nH]c2ccccc12)C(=O)N[C@H](C(=O)N[C@@H](C)C(=O)N[C@@H](CCC(N)=O)C(=O)N[C@@H](C)C(=O)N[C@@H](CC(C)C)C(=O)N[C@@H](CCCNC(=N)N)C(=O)N[C@]1(C)CCCCCCC=CCCC[C@@](C)(C(=O)N[C@@H](Cc2ccc(O)cc2)C(=O)N[C@@H](Cc2ccc(O)cc2)C(=O)N[C@@H](C)C(N)=O)NC(=O)[C@H](CC(N)=O)NC(=O)[C@H](Cc2ccccc2)NC(=O)[C@H](CCC(N)=O)NC(=O)[C@H](CC(=O)O)NC(=O)[C@H](C)NC(=O)[C@H]([C@@H](C)CC)NC1=O)[C@@H](C)CC
B10: Cross-linked peptide #12 (peptide)
peptide: Ac-IWIAQALR[R8]IGNAFN[S5]YYA-NH2
modifications: staple 9-16
SMILES: CC[C@H](C)[C@H](NC(C)=O)C(=O)N[C@@H](Cc1c[nH]c2ccccc12)C(=O)N[C@H](C(=O)N[C@@H](C)C(=O)N[C@@H](CCC(N)=O)C(=O)N[C@@H](C)C(=O)N[C@@H](CC(C)C)C(=O)N[C@@H](CCCNC(=N)N)C(=O)N[C@]1(C)CCCCCCC=CCCC[C@@](C)(C(=O)N[C@@H](Cc2ccc(O)cc2)C(=O)N[C@@H](Cc2ccc(O)cc2)C(=O)N[C@@H](C)C(N)=O)NC(=O)[C@H](CC(N)=O)NC(=O)[C@H](Cc2ccccc2)NC(=O)[C@H](C)NC(=O)[C@H](CC(N)=O)NC(=O)CNC(=O)[C@H]([C@@H](C)CC)NC1=O)[C@@H](C)CC
B11: Cross-linked peptide #16 (peptide)
peptide: IWIAQALRALGDAFNAYFA
modifications: not fully specified; N-terminal Ac; $r8 at residue 9 (column 154) and $ at residue 16 (column 161), crosslinked; hL at residue 10 (column 155); F4F at residue 18 (column 163); C-terminal NH2

How the values were obtained:
MCL-1 [1] = molecular target: MCL-1 (UniProt Q07820); assay: Ki (Table 8); method not stated
BCL-XL [2] = molecular target: BCL-XL (UniProt Q07817); assay: Ki (Table 8); method not stated
BCL-2 [3] = molecular target: BCL-2 (UniProt P10415); assay: Ki (Table 8); method not stated
BCL-2 [4] = molecular target: T1, BCL-2 (UniProt P10415 1-217, limits assumed); assay: Ki (Table 8); method not stated
T1 construct: Target of the Ki columns

BCL-XL [5] = molecular target: T2, BCL-XL (UniProt Q07817 1-209); assay: Ki (Table 8); method not stated
T2 construct: Target of the Ki columns

MCL-1 [6] = molecular target: T3, MCL-1 (UniProt Q07820 172-327, limits assumed); assay: Ki (Table 8); method not stated
T3 construct: Target of the Ki columns; also called Myeloid cell leukemia 1

BCL-2 [7] = molecular target: T1, BCL-2; assay: inhibitory constant assay (Table 7); method not stated
BCL-XL [8] = molecular target: T2, BCL-XL; assay: as above
MCL-1 [9] = molecular target: T3, MCL-1; assay: as above
BCL-2 [10] = molecular target: T1, BCL-2; assay: Ki (Table 6); method not stated
BCL-XL [11] = molecular target: T2, BCL-XL; assay: Ki (Table 6); method not stated
MCL-1 [12] = molecular target: T3, MCL-1; assay: Ki (Table 6); method not stated

T3 sequence (Q07820 172-327 limits assumed): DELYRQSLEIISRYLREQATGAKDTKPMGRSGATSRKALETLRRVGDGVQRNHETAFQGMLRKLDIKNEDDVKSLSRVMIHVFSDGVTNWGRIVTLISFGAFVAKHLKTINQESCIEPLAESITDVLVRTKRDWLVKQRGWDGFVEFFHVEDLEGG
T1 sequence (P10415 1-217 limits assumed): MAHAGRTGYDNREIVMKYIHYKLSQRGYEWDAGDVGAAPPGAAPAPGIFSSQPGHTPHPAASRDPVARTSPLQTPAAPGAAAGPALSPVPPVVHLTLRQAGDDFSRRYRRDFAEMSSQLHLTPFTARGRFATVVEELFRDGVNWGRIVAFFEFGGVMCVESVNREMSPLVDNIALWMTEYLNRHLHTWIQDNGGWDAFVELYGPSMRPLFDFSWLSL
T2 sequence (Q07817 1-209): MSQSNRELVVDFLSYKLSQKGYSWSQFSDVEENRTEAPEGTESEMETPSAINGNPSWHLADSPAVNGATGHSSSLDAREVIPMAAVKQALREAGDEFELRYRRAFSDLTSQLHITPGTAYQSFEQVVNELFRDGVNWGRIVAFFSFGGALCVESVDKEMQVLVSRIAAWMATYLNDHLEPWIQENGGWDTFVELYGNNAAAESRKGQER
Chain of MCL-1 (UniProt Q07820) (Q07820 172-327 limits assumed): as the sequence (Q07820 172-327 limits assumed) above
Chain of BCL-2 (UniProt P10415) (P10415 1-217 limits assumed): as the sequence (P10415 1-217 limits assumed) above
Chain of BCL-XL (UniProt Q07817) (Q07817 1-209): as the sequence (Q07817 1-209) above

Molecule	Ki (BCL-2 [10]) [nM]	Ki (BCL-XL [11]) [nM]	Ki (MCL-1 [12]) [nM]	other results
BIM-SAHBA1 (peptide)	–	–	–	Ki (MCL-1 [1]): 2.7 nM; Ki (BCL-XL [2]): 6.2 nM; Ki (BCL-2 [3]): 29.6 nM
B1	–	–	–	Ki (BCL-2 [4]): 12.8 nM; Ki (BCL-XL [5]): 5.2 nM; Ki (MCL-1 [6]): 10.6 nM
B2	–	–	–	Ki (BCL-2 [7]): 151 nM; Ki (BCL-XL [8]): 178 nM; Ki (MCL-1 [9]): 11 nM; Ki (BCL-2 [4]): 215 nM; Ki (BCL-XL [5]): 114 nM; Ki (MCL-1 [6]): 17 nM
B3	212	110	7.5	–
B4	140	402	7.5	–
B5	1090	386	73.8	–
B6	100000	100000	501	–
B7	43.9	24.9	1.4	–
B8	4.8	1.9	122	–
B9	25.6	7.7	116	–
B10	405	416	195	–
B11	–	–	–	Ki (BCL-XL [5]): 13 nM; Ki (MCL-1 [6]): 27 nM
